Test results reported in PMC2568806, “Two Estrogen Response Element Sequences Near the PCNA Gene Are Not Responsible for Its Estrogen-Enhanced Expression in MCF7 Cells”.

Assays:
[1] = target: T1, recombinant estrogen receptor alpha (rERα) (UniProt P03372 1-595); assay: EMSA, supershift; HESC nuclear extract; 25 mM Tris-HCl pH 8.0, 50 mM KCl, 6.25 mM MgCl2, 10% glycerol, 0.5 mM DTT; 5 µg HESC nuclear extract + 170 nM rERα; 5% acrylamide gel in TBE; temperature not stated; details: protein: commercial; chain copies: 2; label: 32P 5' end; blunt
[2] = target: T1, recombinant estrogen receptor alpha …; assay: EMSA, supershift; HESC nuclear extract; weaker than consensus ERE, stronger than PCNA-ERE2; 25 mM Tris-HCl pH 8.0, 50 mM KCl, 6.25 mM MgCl2, 10% glycerol, 0.5 mM DTT; 5 µg HESC nuclear extract + 170 nM rERα; 5% acrylamide gel in TBE; temperature not stated; details: protein: commercial; chain copies: 2; blunt

T1 sequence (P03372 whole entry): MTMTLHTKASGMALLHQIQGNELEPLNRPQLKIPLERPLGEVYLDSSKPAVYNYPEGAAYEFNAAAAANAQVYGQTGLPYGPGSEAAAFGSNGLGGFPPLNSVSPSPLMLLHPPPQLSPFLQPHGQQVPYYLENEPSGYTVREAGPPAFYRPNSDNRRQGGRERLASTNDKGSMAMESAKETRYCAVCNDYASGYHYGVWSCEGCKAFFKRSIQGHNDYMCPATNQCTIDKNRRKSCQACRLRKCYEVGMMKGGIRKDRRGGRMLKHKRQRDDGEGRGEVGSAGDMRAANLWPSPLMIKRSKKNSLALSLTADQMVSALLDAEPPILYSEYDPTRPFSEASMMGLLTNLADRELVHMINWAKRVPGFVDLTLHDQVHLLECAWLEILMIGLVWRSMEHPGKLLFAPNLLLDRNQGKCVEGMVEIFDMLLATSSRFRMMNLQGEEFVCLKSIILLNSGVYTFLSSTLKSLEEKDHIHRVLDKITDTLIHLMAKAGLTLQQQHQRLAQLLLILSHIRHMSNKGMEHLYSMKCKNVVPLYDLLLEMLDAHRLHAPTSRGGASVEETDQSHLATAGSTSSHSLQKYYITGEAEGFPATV

B1: consensus ERE (dsDNA)
DNA 1: GGATCTAGGTCACTGTGACCCCGGATC
DNA 2: GATCCGGGGTCACAGTGACCTAGATCC
B1: binds [1].

B2: PCNA-ERE1 (dsDNA)
DNA 1: GGGAGTTTGAGGCCAGCCTGACCAACATTG
DNA 2: CAATGTTGGTCAGGCTGGCCTCAAACTCCC
B2: binds [2].
